Reference: PMC8567202, “Phosphoinositide-binding activity of Smad2 is essential for its function in TGF-β signaling” (The Journal of Biological Chemistry, 2021)

Key:
HeLa cells = assay: Smad2 phosphorylation (pS465/pS467), Western blot; type: cell-based; settings: HeLa cells, PI(4,5)P2 depletion
Experimental: (§1) Two separate gels were used to accommodate all mutants. An empty vector transfection (vehicle) was used for a negative control for each gel. Glyceraldehyde 3-phosphate dehydrogenase (GAPDH) was used as a gel loading control. Data in A and B are quantified in Fig. S3A. C, TGF-β stimulated (10 ng/ml for 1 h) nuclear translocation of mouse EGFP-WT, -K420A, -W422A, -E425K, -Y426A, and -R427A/R428A transfected into HeLa cells whose endogenous Smad2 was suppressed by siRNA. For Smad2-WT, the effect of PI(4,5)P2 depletion was measured. Arrows indicate nuclear accumulation of EGFP-WT and EGFP-E425K. Scale bars indicate 10 μm. D, quantification of (C). (Inuc/Icyto) was calculated from total nuclear and cytosolic fluorescence intensity values. Blank and black bars indicate values before and after TGF-β stimulation. Error bars indicate S.D. values from >3 measurements (n = 10). E, Smad2 transcriptional activity measured by the luciferase assay. Blank and black bars indicate values before and after TGF-β stimulation. Error bars indicate S.D. values from >3 measurements (n = 10).
HeLa cells were plated on 6-well or 48-well plates at the density of ∼1.5 × 10^5 or 1.25 × 10^4 for 24 h and 30 nM human Smad2 (or SARA) DsiRNAs (IDT: see sequences below) were transfected into cells using the jetPRIME system (Polyplus transfection) according to the manufacturer's protocols. After transfection with siRNA for 24 h, the medium was exchanged with a fresh one and cells were transfected again with 1 μg/ml of the mouse Smad2 expression vector. In total, 24 to 48 h after transfection, cells were used for further treatment or Western blot analysis. The sequences of DsiRNAs are as follows: SMAD2-siRNA1 (sense: 5′-[…]-3′; antisense: 5′-[…]-3′); SMAD2-siRNA2 (sense: 5′-[…]-3′; antisense: 5′-[…]-3′); SMAD2-siRNA3 (sense: 5′-[…]-3′; antisense: 5′-[…]-3′); SARA-siRNA1 (sense: 5′-[…]-3′; antisense: 5′-[…]-3′); SARA-siRNA2 (sense: 5′-[…]-3′; antisense: 5′-[…]-3′).
Transfected cells or treated cells were lysed in the cell lysis buffer (20 mM Tris-HCl, pH 7.5, containing 150 mM NaCl, 1 mM Na2EDTA, 1 mM EGTA, 1% Triton-X, protease inhibitors, and phosphatase inhibitors) (1 mM Na3VO4, 1 mM NaF, 1 μg/ml leupeptin, 1 mM phenylmethanesulfonylfluoride, 1.5 mM benzamidine, and 2 μg/ml pepstatin). The total protein concentration of the cell lysate was determined by the Pierce BCA protein assay kit (Thermo scientific). The same amounts of proteins were loaded onto a polyacrylamide gel to run sodium dodecyl sulfate–polyacrylamide gel electrophoresis. Proteins were separated and transferred to a polyvinylidene difluoride membrane. The membrane was blocked with 5% bovine serum albumin for 1 h and incubated overnight at 4 °C with various antibodies (1:1000 dilution for all antibodies). After the unbound antibodies were removed by washing with 0.1% Tris buffer saline with 0.1% Tween20, the membranes were incubated with the horseradish peroxidase secondary antibody (1:5000 dilution) for 1 h at room temperature. The membranes were washed three more times with 0.1% Tris buffer saline with 0.1% Tween20 to remove the unbound horseradish peroxidase secondary antibody before imaging. The chemiluminescence intensity of protein bands in the gel was analyzed and documented by the Azure 500Q Imaging System.

[1] = system: Smad2 transcriptional activity; assay: Dual luciferase reporter assay for Smad2 transcriptional activity; type: cell-based
Experimental: as §1
HeLa cells were plated on 6-well plates at the density of ∼1.5 × 10^5 and treated with siRNA as described above. The reporter gene containing three TGF-β/activin response element (ARE) coupled with the luciferase gene (pGL2 3ARE-Lux: Addgene) was used for enhanced activity ([55]). On translocation into the nucleus, receptor-activated Smad2 associates with the DNA-binding protein FAST1 to form a transcriptional complex on the ARE of the Mix.2 promoter. After 24 h, the cell media were replaced with fresh media and cells were cotransfected with 375 ng pGL2 3ARE-Lux experimental vector, 37.5 ng pGL4.73[hRluc/SV40] internal control vector (Promega), 337.5 ng FAST1, and 750 ng of pcDNA 3.1 plasmid harboring Smad2 WT or mutant using the jetPRIME transfection system (Polyplus transfection) according to the manufacturer's protocols. After 24 h of transfection, cells were placed in fresh media and stimulated with 10 ng/ml TGF-β for 48 h. Then the cells were washed with phosphate buffer saline, and the dual luciferase reporter assay was performed according to the manufacturer's protocols (Promega). All 3ARE-Luc activity values were normalized using the pGL4.73[hRluc/SV40] values as a reference.

B1: Smad2 WT: bacterially expressed full-length Smad2 wild-type (protein)
chain: MSSILPFTPPVVKRLLGWKKSAGGSGGAGGGEQNGQEEKWCEKAVKSLVKKLKKTGRLDELEKAITTQNCNTKCVTIPSTCSEIWGLSTANTVDQWDTTGLYSFSEQTRSLDGRLQVSHRKGLPHVIYCRLWRWPDLHSHHELKAIENCEYAFNLKKDEVCVNPYHYQRVETPVLPPVLVPRHTEILTELPPLDDYTHSIPENTNFPAGIEPQSNYIPETPPPGYISEDGETSDQQLNQSMDTGSPAELSPTTLSPVNHSLDLQPVTYSEPAFWCSIAYYELNQRVGETFHASQPSLTVDGFTDPSNSERFCLGLLSNVNRNATVEMTRRHIGRGVRLYYIGGEVFAECLSDSAIFVQSPNCNQRYGWHPATVCKIPPGCNLKIFNNQEFAALLAQSVNQGFEAVYQLTRMCTIRMSFVKGWGAEYRRQTVTSTPCWIELHLNGPLQWLDKVLTQMGSPSVRCSSMS
modifications: left off: His6, N-terminal, state not stated
notes: bacterially expressed full-length Smad2 wild-type
Smad2 phosphorylation after PI(4,5)P2 depletion (HeLa cells): greatly suppressed Smad2 phosphorylation | TGF-β-induced Smad2 transcriptional activity after PI(4,5)P2 depletion ([1]; HeLa cells, PI(4,5)P2 depletion): abrogated TGF-β-induced Smad2 transcriptional activity | Smad2 transcriptional activity after TGF-β stimulation ([1]; Smad2-suppressed HeLa cells, luciferase, 10 ng/ml TGF-β for 48 h): fully restored Smad2 transcriptional activity
